Laboratory results as given in US20240218057A1 (ROCKEFELLER UNIVERSITY, published 2024).
Where a chain is given by its changes, count along the chain named.

B1: C1014 (antibody, V domains shown)
VH: QVQLQESGPGLVRPSQTLSLTCTVSGGSIGSGAYWSWIRQHPAKGLEWIGYVYYSGSTFYNPSLETRVSISVDISKDQFSLELTSVTVADTAVYYCAREKIEVVSIEMRPHYYGIDVWGQGTTVTVSS
VL: EIVMTQSPATLSVSPGERATLSCRASQSISSNLAWYQQKPGQPPRLLIYGASTRATGIPARFSGSGSGTEFTLTISSLQSEDIAVYYCQHYNNWPPWTFGQGTKVDIK
B2: C990 (antibody, V domains shown)
VH: EVQLVESGGGLVRPGGSLRLSCAASGFTVGSNFMSWVRQAPGKGLEWVSLIYSGGGTHYAESVKGRFTISRDKSKNTLYLQMNSLRAEDTAVYYCANQGYYYYMDVWGKGTTVTVS
VL: QSALTQPASVSGSPGQSITISCTGTSSDVGAYNYVSWHQHHPGKAPKLIIYDVSNRPSGVSNRFSGSKSGNTASLTISGLQAEDEADYYCTSYTNTTTPWVFGGGTKLTVL
B3: C996 (antibody, V domains shown)
VH: EVQLVESGGGLVQPGGSLRLSCVASGFTSTNYDMHWVRQAPGRGLQWVSSIGTAGDTYYPGSVRGRFTISRENAKNSLDLQMNSLRVGDTAVYYCARGQRGYYDRSGYYWGWRAFDIWGQGTMVTVSS
VL: SYELTQPPSVSVAPGQTARITCGGNNIGNKSVYWYQQKPGQAPVLVVYDDSGRPSGIPERFSGSNSANTATLTISRVEAGDEADYYCQVWDNNSDQFGGGTKLTVL
B4: C1012 (antibody, V domains shown)
VH: QVQLVQSGAEVKKPGSSVKVSCKASGGTVNNYAINWVRQAPGQGLEWMGGIVPIFGTPNYAQKFQGRVTITADESTSTAYMELSSLRSEDTAVYYCAKVSLTLPIAAAPRFWFDSWGQGTLVTVSS
VL: EIVMTQSPATLSVSPGERATLSCRASQSVSSHLAWYQQKPGQAPRLLIYGASTRATGIPARFSGSGSGTEFTLTISSLQSEDFAVYYCQQYHNWPPALTFGGGTKVEIK
B5: C1013 (antibody, V domains shown)
VH: QVQLVQSGVEVKKPGSSVKVSCKASGGTFTDYAFSWVRQAPGQGLEWMGGIVPIFATPDYAEKFRGRVTITADESTSTAYMELSTLKSEDTAVYYCARASLTLPIRAAPRFWFDAWGQGTLVTVSS
VL: B4 VL with S28G, S31T, N93K
B6: C993 (antibody, V domains shown)
VH: EVQLLESGGGLVQPGGSLRLSCAASGFPFSIYAMSWVRQAPGKGLEWVSGMRGTTGTTYYADSVKGRFAISRDNSKNMLHLQMNSLRAEDTAVYYCAKSDHGDYVIGAFDIWGQGTMVTVSS
VL: QSALTQPPSASGSPGQSVTISCTGTSGDVGGYNYVSWYQQHPGKAPKLMIYEVSKRPSGVPDRFSGSKSGNTASLTVSGLQAEDEADYYCNSYAGSNNWVFGGGTKLTVL
B7: C1006 (antibody, V domains shown)
VH: QVQLVQSGAEVRKPGSSVKVSCKASGGPFDQYTFSWVRQAPGQGLEWMARITPVVDLTNYAQKFQGRITIITDKSTSTAYMELSSLRSEDTAIYYCATPLNDYYASGNLGLWGQGTLVTVSS
VL: DIQMTQSPSSLSASIGDRVTITCRASQGISYYLAWFQQKPGEAPRSLIYDASSLQSGVPSKFSGSGSGTDFTLTISSLQPEDSATYYCQQYNSYPLTFGGGTKVEIK
B8: C1007 (antibody, V domains shown)
VH: QVQLVQSGSEMKKPGSSVKVSCKAAGGTLNTHTFSWVRQAPGQGLEWMGRITPTVDLTNYAQKFQGRITITADTSTNTAYLELRRLRSEDTAIYYCATPLNDYYASGNLGLWGQGTLVTVSS
VL: B7 VL with R18T, Q38R, E42K, R45K, N92S, S93T
B9: C998 (antibody, V domains shown)
VH: QVQLVQSGAEVKKPGASVKVSCKTSGYTFISYYIHWVRQAPGQGLEWMGIINPDGDNTNYAQKFQGRVTMTRDTSTSTVYMELSSLRFEDTAVYYCARGGAIPALRTAFDIWGQGTMVTVSS
VL: DIQMTQSPSTLSASVGDRVTITCRASQSISNWLAWYQQKPGKAPKLLIYKASSLESGVPSRFSGSGSGTEFTLTISSLQPDDFATYYCQEYNSYYFGQGTKLEIK
B10: C999 (antibody, V domains shown)
VH: QVQLVQSGAEVRRPGASVKVSCKASGYTLTHYYIHWVRQAPGQGLEWVGIINPDGDNTNYAQKFQGRVTMTRDTSTSTVYMELSSLRSEDTAIFYCARGGAIPALRSAFDIWGQGTMVTVSS
VL: B9 VL with S30N, S53T, E90Q, Y95F
B11: C995 (antibody, V domains shown)
VH: EVQLVESGGGLIQPGRSLRLSCTASGFSVGDYAMSWFRQAPGKGLEWVGFLRNQHYGGTAEYAASVKGRFSISTDASKNIVYLQMDSLKTEDTAVYYCARNDRYIVIVPAEMLYWGQGTLVTVSS
VL: EIVMTQSPATLSVSPGERATLSCRATESVYSNLAWYQQKPGQAPRLLMYDASTRAPGIPARFSGSGSGTEFTLTISSLQSEDFATYYCQQYSNWPPITFGQGTRLEIK
B12: C1001 (antibody, V domains shown)
VH: QVQLQESGPGLVKPSQTLSLTCTVSGGSISSGDYYWTWIRQPPGKGLEWIGYIFYSGITYYSPSLKSRLTMSIDTSKSQFSLNLSSVTAADTAVYYCARWKRLLQSLHFDYWGQGILVTVSS
VL: QSALTQPRSVSGSPGQSVTISCTGTSSDVGSYDYVSWYQQHPGKAPKVMIYGVDERPSGVPHRFSGSKSGNTASLTISGLQADDEADYFCCFYAGSYTLLFGGGTKVTVL
B13: C1002 (antibody, V domains shown)
VH: EVQLVESGGGLVQPGGSLRLSCAASEFIVSSNYMTWVRQAPGKGLEWVSIMYPGGSTFYADSVKGRFTISRDNSKNTLYLQINRLRAEDTAVYYCARDIAGRLDYWGQGTLVTVSS
VL: DIQMTQSPSSLSASVGDRVTITCQASQDINNYLNWYQQKPGKAPKLLIYDASNLETGVPSRFSGSGSGTDFSFTISSLQPEDIATYYCQQYDNLSRLTFGGGTKVEIK
B14: C1011 (antibody, V domains shown)
VH: QVQLVESGGGVVQPGRSLRLSCAVSGFTFSHYAMHWVRQAPGKGLEWVAVISYDGADKYYADSVRGRFTIARDNSKNTLFLQMSSLRPEDTAVYYCAKKGQPYCGGDCHFYYLDYWGQGTLVTVSS
VL: B13 VL with N30S, Y32H, S72T, P80A, S95P, R96P, L97I, G101Q, K104R, V105L
B15: C1010 (antibody, V domains shown)
VH: QVQLVESGGGVVQPGRSLRLSCAASGFTFSSYAMHWVRQAPGKGLEWVAVISYDGSNKYYADSVKGRFTISRDNSKNTLYLQMNSLRAEDTAVYYCAKKGQPYCGGDCYFYYFDYWGQGTLVTVSS
VL: B13 VL with V15L, N30S, S72T, S95P, R96P, L97I, G101Q, K104R, V105L
B16: C1016 (antibody, V domains shown)
VH: QVQLQESGPGLVKPSGTLSLTCAVSGGPISSNHWWSWVRQPPGKGLEWIGEVYRNGNTNYHPSLKSRVTMSIDNSKNQFSLSLTSVTAADTAVYYCARGGDLAMGPEYLDFWGQGTLVTVSS
VL: QSALTQPASVSGSPGQSITISCTGTSSDVGANNYVSWYQQHPGKAPKLMIYDVINRPSGVSDRFSGSKSGNTASLTISGLQAEDEADYYCSSFSTSSTLLFGGGTKLTVL
B17: C994 (antibody, V domains shown)
VH: QVQLQESGPGLVKPSGTLSLTCAVSGVSISNTNWWNWVRQPPGKGLEWIGEIYHTGSARYNPSLRSRVTISVDKSKNQFSLRLNSATAADTAIYYCARAQTPEFGELLYWGQGALVTVSS
VL: DIQMTQSPSSLSASVGDRVTITCRASQSITDHLNWYQQKPGKAPKLLIYAASSLQTGVPSRFSGSGSETDFTLTISTLQPEDFATYYCQQSYGPPTYSFGQGTKLEIK
B18: C997 (antibody, V domains shown)
VH: EVQLLESGGGLVQPGGSLRLSCAASGFTFSKDAMSWVRQAPGKGLEWVSTVTGSGTNTYYADSVKGRFTISRDNSNNTLYLQMNSLRAEDTAVYYCANHPLGAAEGYYYYYMDVWGKGTTVTVSS
VL: EIVLTQSPGTLSLSPGERGTLSCRASQRVPSSQLAWYQQKSGQAPRLLIYGASSRASGIPDRFSGSGSGTDFTLNISRLEPEDFAVYYCQQYGSLRALTFGGGTKVEIK
B19: C992 (antibody, V domains shown)
VH: QVQLQESGPGLVKPSQTLSLTCTVSGGSISNGGYFWTWIRQHPVKGLEWIGYIYYSGSPHYNPSLKSRLSISLDTFKNQFSLNLSSVTAADTAVYYCARGDTFGRGYYFDFWGQGTLVTVSS
VL: SYELTQPPSVSVAPGQTARITCGGNNIGTNSMHWYQQKPGQAPVLVVFDDSDRPSGIPERFSGSNSGNTATLTISRVEAGDEADYHCQVWDRSSDRPWVFGGGTKLTVL
B20: C1008 (antibody, V domains shown)
VH: EVQLVESGGGLIQPGGSLRLSCAASGFTVSSNYMSWVRQAPGKGLEWVSVIYSGGSTYYADSVKGRFTISRDNSKNTLYLQMNSLRAEDTAVYYCARVVGYDFWSGYDGGYFDYWGQGTLVTVSS
VL: QSALTQPASVSGSPGQSITISCTGTSSDVGSYNLVSWYQQHPGKAPKLMIYEVSKRPSGVSNRFSGSKSGNTASLTISGLQAEDEADYYCCSYAGSSTWVFGGGTKLTVL
B21: C1009 (antibody, V domains shown)
VH: EVQLVESGGGLLQPGGSLRLSCAASGFSVSSNYMTWVRQAPGKGLEWVAAIYSGDSTYYVDSVKGRFIISRDNSKNTVYLHLSSLRAEDTAVYYCARLVGYDFRSGSDGGYFDYWGHGTLVTVSS
VL: B20 VL with V29I, S31N, E52D, A86T
B22: C1003 (antibody, V domains shown)
VH: QVQLVESGGGVVQPGRSLRLSCAASGFAFSSYGMNWVRQAPGKGLEWVTTVSSDGNVNYYIDSVKGRFTISRDNSKNTLYLQMNSLRGDDTAVYYCAKGPRFGWSYRGGSGFDIWGQGTMVTVSS
VL: DIQMTQSPSSLSASVGDRVTITCQASQDISNYLNWYQQKPGKAPKLLIYDASNLETGVPSRFSGSGSGTDFTFTITSLQPEDIATYYCQQYDNLPITFGQGTRLEIK
B23: C1000 (antibody, V domains shown)
VH: QVQLQESGPGLVKPSQTLSLSCTVSGGSISSDDYYWSWIRQPPGKGLEWIGYIYYSGSTYYNSSLKSRVSISVDTSKNQFSLKLSSVTAADTAVYYCARWKRWLQFLYFDYWGQGTLVTVSS
VL: QSALTQPRSVSGSPGQSVTISCTGTSSDVGGYSFVSWYQQHPGKAPKVLIYDVDKRPSGVPDRLSGSKSGNTASLTISGLQAEDEADYYCCSYAGSYTLIFGGGTKLTVL

Biological target: T1, SARS-COV-2 RBD (SARS-COV-2, UniProt P0DTC2 319-539)
T1 construct: also called WT RBD
Assay: ELISA, RBD coated on plate

| Binder | EC50 [ng/mL] |
| --- | --- |
| B1 | 2.95 |
| B2 | 1.85 |
| B3 | 3.07 |
| B4 | 3.29 |
| B5 | 8.92 |
| B6 | 2.29 |
| B7 | 2.04 |
| B8 | 3.22 |
| B9 | 2.51 |
| B10 | 2.68 |
| B11 | 3.79 |
| B12 | 3.23 |
| B13 | 0.83 |
| B14 | 1.49 |
| B15 | 2.45 |
| B16 | 2.16 |
| B17 | 2.09 |
| B18 | 3.49 |
| B19 | 3.24 |
| B20 | 17.2 |
| B21 | 1.34 |
| B22 | 1.82 |
| B23 | 3.2 |
